The values that follow come from the DeepSol protein solubility set.

This series can be described thus: soluble on expression in E. coli; label from the status in PepcDB or PDB records.
Regarding “MMRIGIIARFDVAEAVEIAERVASFLLNRGVEITVDLKLTEELPQLREYGEDIRNMDADMILTIGGDGTILRTRSLIEDKEIPILGINMGTVGFLTEVDPENVFSALEAVLRGEYAVEKRTLLSVYHNDELPSALNEVVLMTRRPAKMLHIEISVDDEVVEELRADGIIIATPSGSTAYSMSAGGPIVDPRVEAFLIVPICPFKLSARPLVVSNKSVIRVKLLRKGKKAIAVIDGQYEEEINHMDEVIFRKSERKAHFVRLSKDFYRKVREKLIEGGIDSIKG”, the “soluble on expression in E. coli” value is “soluble”.

Consider “MMSMKIFETTAPHPEASLLTAFSKNALDRFAEKRTEECVAEALKVDGTHIFAFSGNRLVLKHDEQVIDPLFSAYELAELQPDFDNAVLLGYRETGEPRIAVPVAVAEDQLASHYKLADARTLYRDHLLDEELLSEVAQAVSLTHWNADNRFCGRCGGTMEQRIGGYKRICASCSHTIFPRTDPVVIMMTIDIERDLCLLGRGAHFASGMYSCLAGFVEPGETIEQAVRRETHEESGVEIGRVRYHASQPWPMPHTLMIGCYAEALSSDIARDEIELEDCRWFTREEVAKMLEAPAGEGFSAPPIGAIAHRLMRDWVEWPE”, for which the “soluble on expression in E. coli” value is “soluble”.

In the case of “MMVIGRLGAGKSFATKLRLVRRAMFDEDTVVIMLDPMRGFAGVNEALDGERITVGGRRGLNPLEIKPTPDHVLQEVDDIDPWGEQINWVMTFFATFFEHVADHPLGERNQTLRRAVQEAYEKRGITRDPETHTRDSPTIHDVITVLEEMVEDPEEYGYVTDGEQEAVQSDAQSLLKDLRPSFREGGELENLARPSEFDLDSKVIYLDLHQEEGTRGRAETSLMMQVLFNSVYERVKQTDKRVVFCIDEAHYLMNDAVSLDFLETAVRHSRHFDLSLEFITQTGGEFALTPEARTIANLCSLTVLHRVNEEKEKIAKWF”, the “soluble on expression in E. coli” value is given as “not soluble”.

As to “MNAADDKTIVREYFNSTGFDRWKRIYGDGEVNKVQLDIRNGHQQTVDSVIGWLKNDGNLAELSICDAGCGVGSLSIPLATEGAKVYASDISEKMVEEGKQRALETLGNAENPTFAVQDLESLSGSYHTVICLDVLIHYPQEKADEMISHLCSLAQSRIILSFAPKTCALTLLKKIGSFFPGPSKTTRAYLHREADVIKILESNGFAIQRKEFTKTRFYFSRILEATRSLEHHHHHH”, the “soluble on expression in E. coli” value is reported as “soluble”.

Regarding “MNAATLVDTHAVDTALQEAFEAAPEGFALFDAEDRCVIWNARYGELWSKWGVTLAVGATFESLLLAGLAAGRFPEANGDRAAWLAHQLGRRKLDRIEEIREEFGEYLRFESRRTPAGGLITTCANLTNLRRREAQALAARSFLDTIVENTPAMLFVKDGDTGAFLLVNRAAENQLGVPRAELLGKSDYDFFPKEQADAFAADDRRVIASGKLVTIDEEPLDTPHNGRRWLQTRKIAIPGEDGRRHLLVICEDITERKAGAAALAEALQKAEAGSVAKSEFLANMSHEIRTPLNGVIGMAEVLSRTALDDAQREMMEVILNSGRALNLLLSDILDLSKIEAGGLELSRDPLDLREAITAAVAVFKAVAESKGLVFRLTFADDFHDHVLGDALRVRQIVANLTSNAVKFTTAGSVIIEARTLVAEDGRIDLTVSVQDTGEGFDEDSADRLFERFQQADGSVTRKVGGTGLGLPIARRLARLMDGEISCVAHPGEGATFVFEALFLADGQRTPAASADPAGELALDRRLRVLLAEDHPTNQKVIGLMLADAADVTVAEDGQAAVEAFEKHAYDVVLMDTQMPVMDGLAAIAEIRRREREAQARRTPIISLTANAMPHQVRACLEAGADLHLAKPVSIQGLFATLGAALETRPGGEGLEHHHHHH”, the “soluble on expression in E. coli” value is “not soluble”.

As to “MNANIMLNEDITPIGSDYDTVRGVIELLTLDYREQPSLEAIAARLGQSPTQLQKTFTRWAGLSPKAFLQAVTLDHAKRLLREEDLPLLETSIEVGMSGPGRLHDLFVTHEAMSPGEWKAKGGGLTIRYGFHASPFGLALVMITDRGLAGCAFADPGDERACFEDMAGRWPNADYVEDREATAPYAARIFEPAMWTADKPLRVVLLGTDFQVRVWKSLLKIPMGRAVTYSNIACDIGQPTASRAVGAAVGANPVSFVVPCHRAVGKSGALTGYHWGLTRKRAMLGWETGKALEHHHHHH”, the “soluble on expression in E. coli” value is “not soluble”.

For “MNAQIKIINTANGYMALCQDTPEDITPAWFSVDFWREKSAVVGSSKGRYTTWFVAFEHSHWVLRHYWRGGMMEKFSKDAYFYTGLENTRAMGELRLLDALYREQFAVPKPIAANIVRDGLFYRADIIIERVDGAEDLVAKLTKGTMTQAQWHALGATIAQFHRRGVYHADLNAKNILWQPQQTDSAQERFYLIDFDRGELKTPNAKWQKANLDRLLRSFNKEQGKQPTLAFTPANWAALLEGYHAVVPKVAAALEHHHHHH”, the “soluble on expression in E. coli” value is “soluble”.

With “MNASLYQQYVQAKAEHPGKYARDLATLMGISEAELTHSRVGHDAKRLQSDARALLAALESVGEVKAITRNTYAVHEQVGRYENQHLNGHAGLILNPRALDLRLFLNQWASAFTLTEETRHGVRHSIQFFDHQGDALHKVYVTEQTDMSAWEALLAQFIIPENPALQLEPLSTPEAVEPTADDATVDSEWRAMTDVHQFFQLLKRNNLTRQQAFRAVGDDLAYQVDNNSLTQLLHIAQQDQNEIMIFVGNRGCVQIFTGLIEKVTPHNEWINVFNQRFTLHLIETAIAESWITRKPTKDGFVTSLELFAADGTQLAQLYGQRTEGQPEQNQWREQIARLINKDIAA”, the “soluble on expression in E. coli” value is on record as “not soluble”.

For “MNAVAPLIPCIVSGGSGTRLWPVSRESMPKPFMRLADDQSLLQKTFLRIAGLPDVARLLTVTNRDLLFRTLDDYRAVNRSGLAQDLLLEPVGRNTAPAIAAAALHVQEHFGDQAQLLILPADHLIRDEQAFAAAVAEARGLAAQGYLVTFGITPERAETGFGYIEQGAPLGNGFRVARFVEKPDQATAQSYLDSGKYLWNAGMFCFQAATVLQELERHAPEVLIAARAALADGSSLENGQCRQRELAAGAFAEAPDISVDYALMERSDKVAVVPCSIGWSDIGSWQALRELSAADENGNQVRGESVLHDVSNCYIDSPKRLVGAVGVHDLIIVDTPDALLVADAARSQDVKFVAQELKRRGHDAFRLHRTVSRPWGTYTVLEEGRRFKIKRIVVRPKASLSLQMHHHRSEHWIVVSGMALVENGEREFLLNTNESTFIPAGHSHRLSNPGIIDLVMIEVQSGEYLGEDDIVRFNDIYGRAPASDEKK”, the “soluble on expression in E. coli” value was “not soluble”.

As for “MNDDTRARGGREGGLRAARDRLQPALLDRLTDDERARCTEPPDAQAIGGERLRAAVLRDLAWLLNTRNGEDGFVDWAAFAHAQASVLNYGMRPLVGKPMSGVERMSVEASIRDAIVRFEPRIAPDSVEVRSVLDAPGGAAGERRHNVLMFEIKGTLWSVPHPVEFVLRSALDLETGAMALQPAAGG”, the “soluble on expression in E. coli” value was “not soluble”.

With “MNDKKLLVAYDISSNRRRRKVARILEQCGIRINKSVFICSLRELTMDKLVEAVTSQTAKRDKVFFLPLCQHCYTAAWMSGHPTLPKSRRKRKSIVV”, the “soluble on expression in E. coli” value was “not soluble”.

For “MNEFEDLLNSVSEVNPGDVVTAEVLTVDNGQANVVIDGTGVEGVLTLRELTNDRDADINDFVKAGDTVEVLVLRQVVGKDTDTVTFLVSKKRLEARKAWDKLVGREGEVVTVKGTRAVKGGLSVEFEGLRGFIPASMIDTRFVRNTEKFVGQEFDAKIKEVDAAENRFILSRREVVEESAAAARKEVFSNIEVGSVVTGKVARLTSFGAFIDLGGVDGLVHVTELSHERNVSPKSVVTVGEEVEVKVLSIDEEAGRVSLSLKATTPGPWDGVEQKLAAGDVIEGKVKRLTDFGAFVEVLPGIDGLVHISQISHKRVENPKDVLSAGQEVTVKVLEVNSDAERVSLSMKALEERPAQAEGEKEEKRQSRPRRPRRQEKRDYELPETQTGFSMADLFGDIELLEHHHHHH”, the “soluble on expression in E. coli” value is on record as “soluble”.

On to “MNEIKCPNCGEVFTVNESQYAELLSQVRTAEFDKELHDRMKQELALAEQKAMNEQQTKLAQKDQEIAQLQSQIQNFDTEKELAKKEVEQTSHEALLAKDKEVQLLENQLATLRLEHENQLQKTLSDLEKERDQVKNQLLLQEKENELSLASVKQNYEAQLKAASEQVEFYKNFKAQQSTKAIGESLEQYAESEFNKVRSFAFPNAYFEKDNKVSSRGSKGDFIFRECDENGVEIISIMFEMKNEADGTEKKHKNADFYKELDKDRREKNCEYAVLVTMLEADNDYFNTGIVDVSHEYEKMYVVRPQFFIQLIGLLRNAALNSLKYKQELALVREQNIDITHFEEDLDAFKLAFAKNYNSASTNFGKAIDEIDKAIKRMEEVKKFLTTSENQLRLANNKLEDVSVKKLTRKNPTMKAKFEALKGE”, for which the “soluble on expression in E. coli” value was “not soluble”.
